Measured values: patent US20170042969A1 (JULIUS MAXIMILIANS UNIVERSIT T W RZBURG, published 2017)

B1: hRS1-Reg (regulatory domain of human RS1, amino acids 16-98 of hRS1), wildtype (other, not shown: small tags and cut ends)
chain: SSGQSPDVGNPMSLARSVSASVCPIKPSDSDRIEPKAVKALKASAEFQLNSEKKEHLSLQDLSDHASSADHAPTDQSPAMPMQ

Target: ornithine decarboxylase (ODC) present in Xenopus laevis oocytes
Test: cell-based or functional assay

| Binder | IC50 for down-regulation of hSGLT1-mediated AMG uptake in oocytes (intracellular AMG <10 µM) [nM] | change of affinity for down-regulation of hSGLT1 when intracellular AMG is raised to 250 µM [fold] | IC50 for down-regulation of hSGLT1 in oocytes at about 0.25 mM intracellular AMG [nM] | IC50 for inhibition of SGLT1-mediated AMG uptake in oocytes without injection of AMG [nM] | IC50 without injection of AMG, against QSP [times] | increase of affinity at ~0.25 mM intracellular AMG against low intracellular AMG [fold] |
| --- | --- | --- | --- | --- | --- | --- |
| B1 | 71 | 8 |  |  |  |  |
| QEP [QEP (glutamine-glutamic acid-proline tripeptide)] |  |  | 0.0002 | 7.9 | ~40 | > 15000 |
